# Measured values: publication PMC12455949 (Journal of Virology, 2025)
# Where “and” joins values, the source holds several entries; their conditions need not be identical. Equal entries are not always repeated.
# B1: mAb #1664 (antibody, V domains shown)
# VH: EVQVMQSGAEARMTGATVKISCKASGYTFSDYFLHWVKQAPGKGLEWMGLVDVDNGEVRYAEKFQGRVTITADTSTETAYLEMTTVTSGDTAVYYCASTTPRGGNPSVYNYFFVDVWGKGTTVTVSS
# VL: QPVLTQSSSASASLGSSVKLTCTLSSGHDNYIIAWHQQQPGKAPRYLMQVGAGGTYNKGSGVPHRFSGSSSGADRYLTISNLQSDDEADYYCETWDSKTVFGGGTTLTVL
# notes: copies: 2 + 2
# B2: mAb #1664 (antibody, V domains shown)
# VH: EVQVMQSGAEARMTGATVKISCKASGYTFSDYFLHWVKQAPGKGLEWMGLVDVDNGEVRYAEKFQGRVTITADTSTETAYLEMTTVTSGDTAVYYCASTTPRGGNPSVYNYFFVDVWGKGTTVTVSS
# VL: QPVLTQSSSASASLGSSVKLTCTLSSGHDNYIIAWHQQQPGKAPRYLMQVGAGGTYNKGSGVPHRFSGSSSGADRYLTISNLQSDDEADYYCETWDSKTVFGGGTTLTVL
# B3: mAb TJ5-1 (antibody, V domains shown)
# VH: EVQLVQSGAEVKKPGASVKVSCKASGYTFTGFYLHWVRQAPGQGLEWMGWINPHSGDTDFAQKFQGKVTMTRDTSSNTVYMDVNRLTSDDTAVYYCVKNDIVLGMGVWGQGTTVIVSS
# VL: QSVLTQPPSVSGAPGQRVTISCTGSSSNIGAGYNVYWFQQLPPTAPKLLNYGDNNRPSGVPDRFSASKSGTSASLAITGLQAEDEAEYYCQSYDSSLNAYVFGTGTKVTVL
# B4: mAb TJ5-1 (antibody, V domains shown)
# VH: EVQLVQSGAEVKKPGASVKVSCKASGYTFTGFYLHWVRQAPGQGLEWMGWINPHSGDTDFAQKFQGKVTMTRDTSSNTVYMDVNRLTSDDTAVYYCVKNDIVLGMGVWGQGTTVIVSS
# VL: QSVLTQPPSVSGAPGQRVTISCTGSSSNIGAGYNVYWFQQLPPTAPKLLNYGDNNRPSGVPDRFSASKSGTSASLAITGLQAEDEAEYYCQSYDSSLNAYVFGTGTKVTVL
# B5: mAb TJ5-13 (antibody, V domains shown)
# V domain 1: QVQLVQSGAEVKKPGSSVKVSCEASGDTFTTYSGINWVRQAPGQGLEWMGGVLPNFGSPNYAQRFQGRITITVDRSTSLVHMELTNLRSDDTAVYYCTETGAYNSVGYFPYFQFRGQGTLVSVSS
# V domain 2: QSVLTQPPSVSGAPGQRVTISCTGSSSNIGADYDVHWYQQLPGTAPKLLIFGNNNRPSGVPDRFSGSKSGTSASLAITGLQAEDEADYYCQSFDKSLSGSFVFGTGTKVTGQ
# B6: mAb TJ5-13 (antibody, V domains shown)
# V domain 1: QVQLVQSGAEVKKPGSSVKVSCEASGDTFTTYSGINWVRQAPGQGLEWMGGVLPNFGSPNYAQRFQGRITITVDRSTSLVHMELTNLRSDDTAVYYCTETGAYNSVGYFPYFQFRGQGTLVSVSS
# V domain 2: QSVLTQPPSVSGAPGQRVTISCTGSSSNIGADYDVHWYQQLPGTAPKLLIFGNNNRPSGVPDRFSGSKSGTSASLAITGLQAEDEADYYCQSFDKSLSGSFVFGTGTKVTGQ
# Key:
# Test in all cases: BLI
# Settings in all cases: both partners purified
# [1] = target: A/Switzerland/9715293/2013 HA, recombinant soluble (rHA) (Influenza A virus …, strain)
# [2] = target: COBRA HA NG2, recombinant soluble (rHA) (Influenza A virus H3, designed COBRA NG2)
# [3] = target: COBRA HA J4, recombinant soluble (rHA) (Influenza A virus H3, designed COBRA J4)
# [4] = target: A/Texas/50/2012 HA, recombinant soluble (rHA) (Influenza A virus A/Texas/50/2012 (H3N2), UniProt R4L1D1, strain)
# [5] = target: A/Panama/2007/1999 HA, recombinant soluble (rHA) (Influenza A virus A/Panama/2007/1999 …, UniProt Q1K9M3, strain)
# [6] = target: A/Perth/16/2009 HA, recombinant soluble (rHA) (Influenza A virus A/Perth/16/2009 (H3N2), UniProt C6KNH7, strain)
# [7] = target: COBRA HA TJ2, recombinant soluble (rHA) (Influenza A virus H3, designed COBRA TJ2)
# [8] = target: A/Port Chalmers/1/1973 HA, recombinant soluble (rHA) (Influenza A virus A/Port …, UniProt Q1PUD9, strain)
# A/Panama/2007/1999 HA = A/Panama/2007/1999 HA (Influenza A virus A/Panama/2007/1999 …, UniProt Q1K9M3, strain)
# [9] = target: A/Switzerland/9715293/2013 HA (Influenza A virus …, strain)
# A/Victoria/361/2011 HA = A/Victoria/361/2011 HA (Influenza A virus A/Victoria/361/2011 …, UniProt A0A097PF39, strain)
# A/Perth/16/2009 HA = A/Perth/16/2009 HA (Influenza A virus A/Perth/16/2009 (H3N2), UniProt C6KNH7, strain)
# [10] = target: A/Port Chalmers/1/1973 HA (Influenza A virus A/Port …, UniProt Q1PUD9, strain)
# A/Texas/50/2012 HA = A/Texas/50/2012 HA (Influenza A virus A/Texas/50/2012 (H3N2), UniProt R4L1D1, strain)
# [11] = target: A/Victoria/361/2011 HA, recombinant soluble (rHA) (Influenza A virus A/Victoria/361/2011 …, UniProt A0A097PF39, strain)
Binder,Kd [1],Kd [2],Kd [3],Kd [5],Kd [6],Kd (A/Panama/2007/1999 HA) [nM],koff (A/Panama/2007/1999 HA) [s⁻¹],kon (A/Panama/2007/1999 HA) [M⁻¹ s⁻¹],Kd [9] [nM],koff [9] [s⁻¹],kon [9] [M⁻¹ s⁻¹],Kd (A/Victoria/361/2011 HA) [nM],koff (A/Victoria/361/2011 HA) [s⁻¹],kon (A/Victoria/361/2011 HA) [M⁻¹ s⁻¹],Kd (A/Perth/16/2009 HA) [nM],koff (A/Perth/16/2009 HA) [s⁻¹],kon (A/Perth/16/2009 HA) [M⁻¹ s⁻¹],Kd (A/Texas/50/2012 HA) [nM],koff (A/Texas/50/2012 HA) [s⁻¹],kon (A/Texas/50/2012 HA) [M⁻¹ s⁻¹],also measured
B1,286 nM and 222 nM,135 nM and 143 nM,12.8 nM and 17.7 nM,18.2 nM and 14.7 nM,0.42 nM and 0.2 nM,–,–,–,–,–,–,–,–,–,–,–,–,–,–,–,Kd [4]: 0.73 nM and 1.13 nM; Kd [7]: 0.47 nM and 0.43 nM; binding result [8]: no binding (tested: 1350 nM)
B2,–,–,–,–,–,16.4,0.00179,109000,254,0.00379,15000,0.84,8.98e-05,119000,0.31,3.36e-05,108000,0.93,9.08e-05,98300,binding result [10]: no binding (tested: 100 nM rHA (exploratory assays))
B3,0.59 nM and 0.67 nM,–,0.3 nM and 0.16 nM,0.15 nM and 0.17 nM,0.13 nM and 0.14 nM,–,–,–,–,–,–,–,–,–,–,–,–,–,–,–,Kd [4]: 0.21 nM and 0.39 nM; Kd [11]: 0.62 nM and 1.1 nM; Kd [7]: 3.28 nM and 8.01 nM; Kd [8]: 7.13 nM and 13.1 nM
B4,–,–,–,–,–,0.16,4.97e-05,315000,0.63,0.00019,303000,0.86,0.000195,228000,0.14,3.66e-05,266000,0.3,8.93e-05,307000,–
B5,1.32 nM and 2.09 nM,2.34 nM and 6.81 nM,0.13 nM and 0.39 nM,1.88 nM and 3.48 nM,0.22 nM and 0.33 nM,–,–,–,–,–,–,–,–,–,–,–,–,–,–,–,Kd [11]: 0.39 nM and 0.8 nM; binding result [8]: no binding (tested: 1350 nM)
B6,–,–,–,–,–,1.14,0.000304,114000,1.71,0.000166,98600,0.59,0.000128,218000,0.27,6.03e-05,226000,0.42,9.53e-05,257000,binding result [10]: no binding (tested: 100 nM rHA (exploratory assays))
